Results on two molecules are retold here after patent US11945858B2, “Antibodies and antibody fragments against HNAV1.7 channel and their use in pain and cancer indications” (NATIONAL RESEARCH COUNCIL OF CANADA, priority 2018, dated 2024).

“Also recorded” adds a separate entry of the source.

Series [1] has as its target T1, FC5DIE3IR (Homo sapiens, UniProt Q15858).
T1 construct: The supernatant was collected and loaded on a 5 ml MabSelect™ SuRe™ column; made in house; host or cells: CHO-3E7 (transient, pTT5 vector), purified from supernatant
As to the kind of experiment: Surface Plasmon Resonance of mAbs, FC5DIE3IR. Type of series: binding. On the procedure:
(§1) Surface Plasmon Resonance of mAbs. FC5 and FC5DIE3IR proteins were SEC purified using a Superdex 75 column (GE Healthcare) connected to an AKTAPurifier (GE Healthcare) in HBS-EP+ running buffer (10 mM HEPES, pH 7.4, containing 150 mM NaCl, 3 mM EDTA and 0.05% P20) at a flow rate of 1 ml/min. Monomeric eluted peaks were used to flow over Fc-capture 3A8 mAb surfaces. To prepare the 3A8 mAb surfaces, approximately 6000 RUs of anti-mouse IgG (GE Healthcare) was first immobilized on CM5 Series S sensor chips (GE Healthcare) at pH 5.0, using standard amine coupling methods previously reported (Hussack et al., 2011) and according to the manufacturer's instructions (GE Healthcare). HBS-EP running buffer used for SPR experiments. The mAb 3A8 was captured on the anti-mouse IgG surface using 10 μg/ml of mAb, 30 sec contact time and flow rate of 10 μl/min. IMAC-purified DI-D VHH was passed through a Superdex 75 (GE Healthcare) column for SEC purification in HBS-EP buffer (10 mM HEPES, pH 7.4, containing 150 mM NaCl, 3 mM EDTA and 0.005% P20), connected to an AKTAPurifier (GE Healthcare) at a flow rate of 1 ml/min. Test binding experiments of FC5 control and FC5DIE3IR involved flowing 1 μM concentrations of SEC-pure material over the mAb surface at a flow rate of 30 μl/min for 5 min. Surfaces could be regenerated using 10 mM glycine, pH 1.7, with a 120 sec pulse at 20 μl/min. All SPR experiments were evaluated with Biacore T200 Software v 3.0. For kinetic analysis, single cycle kinetic analysis was used by flowing a range of FC5DIE3IR concentrations (320 nM-20 nM) at a flow rate of 30 μl/min, with 600 sec contact time and 1200 sec dissociation. Regeneration conditions were the same as above. Data were fit to a 1:1 binding model and analyzed using the Biacore T200 Software v3.0.
(§2) Surfaces were regenerated by washing with running buffer (HBS-EP). Data were analyzed with BIAevaluation 4.1 software as described (Hussack et al., 2011) and affinities determined using the steady state binding model.
(§3) Surface Plasmon Resonance (SPR) for monoclonal antibodies.

Series [2] deals with CFA-induced thermal hyperalgesia. The experiment in a line: Hargreaves Model of Hyperalgesia in rats. It counts as in vivo, rat. Conditions: for Maximum percentage of the effect (% Effect; % MPE): time of maximum (1, 2 or 4 h). On the procedure:
Hargreaves Model of Hyperalgesia in rats. Rats aged 4-6 weeks (weight range, 180-220 g) were used for intraplantar (ipl) administrations of various antibodies and evaluation of their efficacy in the Hargreaves model of inflammatory pain. Chronic inflammatory pain is induced by injecting a low volume (50 μl) of complete Freund's adjuvant (CFA; heat-killed M. tuberculosis—Sigma, St. Louis, Mo.—suspended in oil:saline 2:1 emulsion) into the right hind paw. The paw withdrawal latency in response to the application of a radiant stimulus onto the plantar surface of both right and left paw was measured using the plantar Analgesia Meter equipment for paw stimulation (IITC Life Science, Woodland Hills, Calif.). The time taken by the animal to respond by licking or flicking its paw is interpreted as positive response (paw withdrawal latency). After 48 h of the CFA injection, the baseline for latency paw withdrawal was measured and the mAbs tested. […] A cut-off time (20 sec) is established at the end of which the heat source shuts off automatically to avoid tissue damage. Animals were kept (randomized) one per cage and staff performing pain experiments are blinded to the content of injectable compounds. Percentage of maximum possible effect (% MPE) was calculated using the formula % MPE=(Test Latency−Baseline Latency)×100/(Cut-off−Baseline Latency).

Series [3] relates to overlapping antigen-peptides derived from DIE3IR. As to the kind of experiment: ELISA of mAbs on overlapping antigen-peptides derived from DIE3IR. It counts as binding, human. Particulars: peptides coated 100-500 ng/well. The protocol: The peptides were custom-synthesized (Biomatik) and tested for antibody binding by ELISA. […] The wells were blocked with 1% BSA in TBS-T for 30 min and then incubated with 1:1000 dilution of anti-hNav1.7 mAb at room temperature (RT) for one hr. Following three TBS-T washes (3×5 min), mAb binding to peptides was detected by incubating with HRP-conjugated anti-mouse Fc antibody for 90 min at RT in TBS-T. The bound antibody was detected with SureBlue™ TMB reagent kit (KPL) by colorimetric measurement at 450 nm according to manufacturer's instructions.
To identify the epitope for mAb 3A8 on DIE3IR, seven overlapping antigen-peptides were generated (FIG. 15A) and an ELISA was performed to determine the binding between these peptides and the various mAb (FIGS. 15C to 15I).

The next series has as its system CHO-3E7. The experiment in a line: Cell-ELISA on live CHO-3E7 cells. Particulars: hybridoma supernatant, OD450 nm. Type of series: cell-based, Chinese hamster. On the procedure: Cell-ELISA. Sterile 96-well plates (Costar #3595) were pre-treated with 50 μl/well of branched polyethyleneimine (PEI, Sigma Cat #408727) at 25 μg/ml in PBS for 30 min at room temperature. PEI was removed and CHO-3E7 or hNAv1.7-CHO (ChanTest cat #CT4003) were seeded at 6×10^5 cells per well in FreeStyle F17 Expression Medium (Gibco Cat #A1383501) and incubated overnight at 37° C., 5% CO2. Microplates were blocked with Starting block (Thermofisher Cat #37538) for 30 min at room temperature, and 50 μl of hybridoma supernatants were added and incubated at 4° C. for 3 h. Plates were washed 5 times with PBS and incubated for one hour at 4° C. with 50 μl of secondary antibody HRP-conjugated F(ab′)2 goat anti-mouse IgG (H+L) (Jackson Immunoresearch #115-036-062) diluted 1/5000 in blocking buffer. After 10 washes with PBS, 50 μl of TMB substrate solution (Pierce Cat #34021) was added and further incubated for 60 min at room temperature. Twenty-five μl/well of stop solution ([…] 1M) was added and OD450 nm measurements were done using a microplate reader (Spectramax 340 PC, Molecular Devices).

A further series relates to glioblastoma U87MG cells. The experiment in a line: Soft agar assay, U87MG. Conditions: mAb 1 μM.
The subject of another series is VHH FC5. As to the kind of experiment: Surface Plasmon Resonance of mAbs, FC5 control. It counts as binding. Particulars: SPR; 25 °C. The protocol: as §1, §2, §3
Another series addresses hNav1.7 channels (Homo sapiens, UniProt Q15858, W1161R). As to the kind of experiment: Patch-clamp whole-cell recordings in hNav1.7-HEK293 cells. Type of series: cell-based.
Series [4] concerns OD1-evoked Nav1.7-mediated spontaneous pain behaviours. Type of series: in vivo, mouse. Conditions: 100 μg, injected 60 minutes prior to OD1; 20 min after the injection.
The target in series [5] is T1, FC5DIE3IR. The experiment in a line: Hydrogen-Deuterium Exchange Mass Spectrometry (HDX-MS). Conditions: labelling 1, 10 and 60 min. It counts as binding.
Series [6] deals with ovarian cancer SKOV-3 cells. As to the kind of experiment: Soft agar assay, SKOV-3. Conditions: mAb 1 μM; FIG. 24D.
In series [7] the test system is glioblastoma U87MGvIII cells. The experiment in a line: Soft agar assay, U87MGvIII. Conditions: mAb 1 μM; FIG. 24C.
Setting [8] is: −20 mV, after antibody application (1 μM).

Chain of VHH FC5 (as listed by the source): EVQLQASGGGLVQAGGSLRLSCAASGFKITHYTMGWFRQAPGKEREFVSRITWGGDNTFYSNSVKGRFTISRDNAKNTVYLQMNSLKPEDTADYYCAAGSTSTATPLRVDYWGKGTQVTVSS

B1: 2G11: anti-hNav1.7 mouse monoclonal antibody, IgG2a, k; heavy chain SEQ ID NO: 117, light chain SEQ ID NO: 119 (antibody, V domains shown)
VH: QVQLQQPGAELVKPGASVKLSCKASGYTFTTYWMHWVKQRPGQGLEWIGEINPSNGRANYNEKFKSKATLTVDKSSSTAYMQLSSLTSEDSAVYYCLRSLGYFDYWGQGTTLTVSSAKTTAPSVYPLAPG
VL: DVVMTQSPLSLPVSLGDQASISCRSSQSLVHSNGNTYLHWYLQKAGQSPKFLIYKVSNRFSGVPDRFSGSGSGTDFTLKISRVEAEDLGVYFCSQSTHVPYTFGGGTKLEIKRADAAPTVSIFPPSS
modifications: Heavy chain of the 2G11 antibody without leader sequence; Light chain of the 2G11 antibody without leader sequence
On to B1, for which the “ka” value with FC5DIE3IR [1] worked out at 9560 M⁻¹ s⁻¹. In the series with FC5DIE3IR [1], the “kd” value was 0.000526 s⁻¹. In the series with FC5DIE3IR [1] (Fc-captured mAb, FC5-DIE3IR flowed, 25 °C), the “Rmax (RU)” value stood at 84 RU. In addition, in the series with FC5DIE3IR [1] (SPR, 25 °C), the “Binding to FC5DIE3IR (comment, in words)” value is “strong and specific binding; also recorded: strongly and specifically bound”. Further, the “Percentage of effect after injection (on left paw withdrawal)” value in series [2] (100 μg intraplantar, 0 h) is 0%; in [2] (100 μg intraplantar, 1 h), 27.98% ± 7.17; in series [2] (100 μg intraplantar, 2 h), 22.02% ± 2.08; in series [2] (100 μg intraplantar, 4 h), 25.80% ± 2.82. For the same molecule, the Latency paw withdrawal in [2] (100 μg intraplantar, 1 h) amounted to 8.80 ± 1.02 s; in series [2] (100 μg intraplantar, 2 h) it was 7.86 ± 0.33 s; in [2] (100 μg intraplantar, 4 h), 8.45 ± 0.44 s; in series [2] (intraplantar, mAbs 100 μg, 11E5 dose not stated, time not given) it was 8.45 ± 0.44 s. The “Maximum percentage of the effect (% Effect; % MPE)” value in [2] (100 μg intraplantar) is given as 27.98±7.17%. The “Peptide in which the binding motif resides / that is bound” value in [3] is reported as “pep #40a”. For the same molecule, the “ELISA on live cells (duplicates) CHO-3E7” value in the series on CHO-3E7 (duplicate 1) was −0.027; with CHO-3E7 (duplicate 2), −0.025. Also, in the series on glioblastoma U87MG cells (different experiment, FIG. 24B), the “Reduction of colony formation” value is reported as 60%. Further, in the series on VHH FC5, the “Binding to FC5 control (comment, in words)” value was “did not bind; also recorded: No binding”. In the series with hNav1.7 channels (1 μM), the “Voltage-dependence of activation (shift V1/2 activation)” value is −4.7 mV. The “Voltage-dependence of the steady-state fast inactivation (shift V1/2 inactivation)” value with hNav1.7 channels (1 μM) is on record as −13.9 mV. In the series with hNav1.7 channels (2 μM, single time-course recording of the figure), the “Onset time of the effect (exponential fit of the current decay, T)” value worked out at 57 s. Besides, the “Effect on hNav1.7 currents (in words)” value with hNav1.7 channels (example recordings, 1-3 μM) is recorded as “reduced the hNav1.7 currents”. Also, the “Fast inactivation (time constant)” value with hNav1.7 channels (setting [8]) stood at 0.81 ms. The Time-to-peak in the series with hNav1.7 channels (setting [8]) turned out to be 0.87 ms. In addition, the “Time spent in pain behaviors (saline plus OD1 = 100%)” value in [4] is 63.47±4.78%. The “Stabilization of FC5DIE3IR in response to mAb binding (residues, differential HDX-MS)” value with FC5DIE3IR [5] is reported as “Asn121-Tyr134”.

B2: 1H5: anti-hNav1.7 mouse monoclonal antibody, IgG1, k; heavy chain SEQ ID NO: 121, light chain SEQ ID NO: 123 (antibody, V domains shown)
VH: EVKLVESGGGLVKPGGSLKLSCAASGFTFRSYAMSWVRQTPEKGLEWVASISSGGSTYYPDSVKGRFTISRDNAGNILYLQMSSLRSEDTAMYYCARGYDGYYERIWYYAMDYWGQGTSVTVSSAKTTPPSVY
VL: DIVMTQSQKFMSTSVGDRVTVSCKASQNVGTIVAWYQQKPGQSPKALIYSASYRFSGVPDRFTGSGSGTDFTLTISNVQSEDLAEYFCQQYNTYPLTFGSGTKLEIKRADAAPTVSIFPPSS
modifications: Heavy chain of the 1H5 antibody without leader sequence; Light chain of the 1H5 antibody without leader sequence
For the molecule B2, the results for the “Reduction of colony formation” value (in series [6]; in the series on glioblastoma U87MG cells (FIG. 24A); in series [7]) were 57%, 37% and 60%, respectively. Also, the “Percentage of effect after injection (on left paw withdrawal)” value in series [2] (100 μg intraplantar, 0 h) is 0%; in [2] (100 μg intraplantar, 1 h), 21.85% ± 3.71; in [2] (100 μg intraplantar, 2 h), 35.23% ± 0.88; in [2] (100 μg intraplantar, 4 h), 31.20% ± 5.18. For the same molecule, the Latency paw withdrawal in [2] (100 μg intraplantar, 1 h) stood at 7.97 ± 0.61 s. In addition, the “Maximum percentage of the effect (% Effect; % MPE)” value in [2] (100 μg intraplantar) was 35.23±0.88%. For the same molecule, the “Peptide in which the binding motif resides / that is bound” value in series [3] is listed as “Pep #3”. For the same molecule, the figures for the “ELISA on live cells (duplicates) CHO-3E7” value with CHO-3E7 (duplicate 1) and in the series on CHO-3E7 (duplicate 2) were −0.014 and 0.029, respectively. Also, the “Binding to FC5 control (comment, in words)” value with VHH FC5 is “No binding”. For the same molecule, in [4], the “Time spent in pain behaviors (saline plus OD1 = 100%)” value is 73.84%±16.78.
